Source: patent US20160311921A1

Molecular target: farletuzumab
Test: cell-based or functional assay

farletuzumab, sequence (heavy, as listed by the source, chain 1 of 2): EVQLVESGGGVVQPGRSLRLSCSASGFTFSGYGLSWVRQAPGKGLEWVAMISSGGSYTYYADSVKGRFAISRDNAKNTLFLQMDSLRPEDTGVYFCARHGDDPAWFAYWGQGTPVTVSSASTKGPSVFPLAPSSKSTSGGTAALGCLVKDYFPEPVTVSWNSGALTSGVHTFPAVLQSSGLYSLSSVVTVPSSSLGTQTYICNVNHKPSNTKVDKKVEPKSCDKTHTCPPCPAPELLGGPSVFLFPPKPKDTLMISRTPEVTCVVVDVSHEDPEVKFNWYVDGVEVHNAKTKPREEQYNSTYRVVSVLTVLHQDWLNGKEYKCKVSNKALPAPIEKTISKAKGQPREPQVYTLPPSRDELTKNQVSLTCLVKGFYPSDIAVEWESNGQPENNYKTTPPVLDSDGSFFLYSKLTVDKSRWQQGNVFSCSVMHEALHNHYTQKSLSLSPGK
farletuzumab, sequence (light, as listed by the source, chain 2 of 2): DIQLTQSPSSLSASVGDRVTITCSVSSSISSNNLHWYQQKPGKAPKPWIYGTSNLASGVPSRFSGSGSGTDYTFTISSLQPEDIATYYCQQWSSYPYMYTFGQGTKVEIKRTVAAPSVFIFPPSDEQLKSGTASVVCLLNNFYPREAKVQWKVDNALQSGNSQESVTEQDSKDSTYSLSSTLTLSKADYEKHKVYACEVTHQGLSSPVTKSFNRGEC

- inhibition of Farletuzumab ADCC activity (luminescence, Promega ADCC Reporter Bioassay Core Kit, CHO-hFR-α target cells): 50%
Substance: cancer antigen 125 (CA125) (from UniProt Q8WXI7 1-14451)
